Measured values published in patent US11882829B2, “Fusion proteins and methods for stimulating plant growth, protecting plants, and immobilizing bacillus spores on plants” (Spogen Biotech Inc., priority 2013, dated 2024).

B1: InhA (SEQ ID NO: 100): InhA promoter (B. thuringiensis Al Hakam) (nucleic acid, listed as Bacillus thuringiensis)
DNA: TATCACATAACTCTTTATTTTTAATATTTCGACATAAAGTGAAACTTTAATCAGTGGGGGCTTTGTTCATCCCCCCACTGATTATTAATTGAACCAAGGGATAAAAAGATAGAGGGTCTGACCAGAAAACTGGAGGGCATGATTCTATAACAAAAAGCTTAATGTTTATAGAATTATGTCTTTTTATATAGGGAGGGTAGTAAACAGAGATTTGGACAAAAATGCACCGATTTATCTGAATTTTAAGTTTTATAAAGGGGAGAAATG
B2: BclA adjacent US Glycosyl transferase promoter 1 (SEQ ID NO: 101): BclA cluster glycosyl transferase operon 1 promoter (nucleic acid, listed as Bacillus thuringiensis)
DNA: ATTTTTTACTTAGCAGTAAAACTGATATCAGTTTTACTGCTTTTTCATTTTTAAATTCAATCATTAAATCTTCCTTTTCTACATAGTCATAATGTTGTATGACATTCCGTAGGAGGCACTTATA
modifications: expressed or natural sequence
notes: BclA cluster glycosyl transferase operon 1 promoter
B3: BclA (SEQ ID NO: 85) (nucleic acid, listed as Bacillus anthracis)
DNA: TAATCACCCTCTTCCAAATCAATCATATGTTATACATATACTAAACTTTCCATTTTTTTAAATTGTTCAAGTAGTTTAAGATTTCTTTTCAATAATTCAAATGTCCGTGTCATTTTCTTTCGGTTTTGCATCTACTATATAATGAACGCTTTATGGAGGTGAATTTATG
B4: Sigma K (SEQ ID NO: 99) (nucleic acid, listed as Bacillus anthracis)
DNA: TATATCATATGTAAAATTAGTTCTTATTCCCACATATCATATAGAATCGCCATATTATACATGCAGAAAACTAAGTATGGTATTATTCTTAAATTGTTTAGCACCTTCTAATATTACAGATAGAATCCGTCATTTTCAACAGTGAACATGGATTTCTTCTGAACACAACTCTTTTTCTTTCCTTATTTCCAAAAAGAAAAGCAGCCCATTTTAAAATACGGCTGCTTGTAATGTACATTA
B5: BclC (SEQ ID NO: 98) (nucleic acid, listed as Bacillus anthracis)
DNA: TGAAGTATCTAGAGCTAATTTACGCAAAGGAATCTCAGGACAACACTTTCGCAACACCTATATTTTAAATTTAATAAAAAAAGAGACTCCGGAGTCAGAAATTATAAAGCTAGCTGGGTTCAAATCAAAAATTTCACTAAAACGATATTATCAATACGCAGAAAATGGAAAAAACGCCTTATCATAAGGCGTTTTTTCCATTTTTTCTTCAAACAAACGATTTTACTATGACCATTTAACTAATTTTTGCATCTACTATGATGAGTTTCATTCACATTCTCATTAGAAAGGAGAGATTTAATG
B6: YjcA (SEQ ID NO: 93): YjcA promoter (B. thuringiensis serovar kurstaki str. HD73) (nucleic acid, listed as Bacillus thuringiensis)
DNA: TTAATGTCACTCCTTATCTTCTTGTTTGTATTTACATTAATAAGATATTGGAGTTGAGGAGATTTGGTCACAATCTCAAGACCTTTTTTTTAAATAGGCGAAAGAGGATAAGGGAAGGTGGAATTA
modifications: expressed or natural sequence
B7: CotY (SEQ ID NO: 97) (nucleic acid, listed as Bacillus anthracis)
DNA: CGCGCACCACTTCGTCGTACAACAACGCAAGAAGAAGTTGGGGATACAGCAGTATTCTTATTCAGTGATTTAGCACGCGGCGTAACAGGAGAAAACATTCACGTTGATTCAGGGTATCATATCTTAGGATAAATATAATATTAATTTTAAAGGACAATCTCTACATGTTGAGATTGTCCTTTTTATTTGTTCTTAGAAAGAACGATTTTTAACGAAAGTTCTTACCACGTTATGAATATAAGTATAATAGTACACGATTTATTCAGCTACGTA
B8: BclA adjacent DS Glycosyl transferase promoter 2 (SEQ ID NO: 102): BclA cluster glycosyl transferase operon 2 promoter (nucleic acid, listed as Bacillus thuringiensis)
DNA: ACATAAATTCACCTCCATAAAGCGTTCATTATATAGTAGATGCAAAACCGAAAGAAAATGACACGGACATTTGAATTATTGAAAAGAAATCTTAAACTACTTGAACAATTTAAAAAAATGGAAAGTTTAGTATATGTATAACATATGATTGATTTGGAAGAGGGTGATTA
B9: BxpB/ExsFA (SEQ ID NO: 95): BxpB promoter (B. thuringiensis Al Hakam) (nucleic acid, listed as Bacillus thuringiensis)
DNA: AAACTAAATAATGAGCTAAGCATGGATTGGGTGGCAGAATTATCTGCCACCCAATCCATGCTTAACGAGTATTATTATGTAAATTTCTTAAAATTGGGAACTTGTCTAGAACATAGAACCTGTCCTTTTCATTAACTGAAAGTAGAAACAGATAAAGGAGTGAAAAACA
B10: Rhamnose Promoters (SEQ ID NO: 96): Rhamnose promoter (B. thuringiensis Al Hakam) (nucleic acid, listed as Bacillus thuringiensis)
DNA: ATTCACTACAACGGGGATGAGTTTGATGCGGATACATATGAGAAGTACCGGAAAGTGTTTGTAGAACATTACAAAGATATATTATCTCCATCATAAAGGAGAGATGCAAAG
modifications: expressed or natural sequence
B11: YjcB (SEQ ID NO: 94): YjcB promoter (B. thuringiensis serovar kurstaki str. HD73) (nucleic acid, listed as Bacillus thuringiensis)
DNA: ATATATTTTCATAATACGAGAAAAAGCGGAGTTTAAAAGAATGAGGGAACGGAAATAAAGAGTTGTTCATATAGTAAATAGACAGAATTGACAGTAGAGGAGA
modifications: expressed or natural sequence
B12: ExsY (SEQ ID NO: 91): ExsY promoter (B. thuringiensis serovar konkukian str. 97-27) (nucleic acid, listed as Bacillus thuringiensis)
DNA: TAATTCCACCTTCCCTTATCCTCTTTCGCCTATTTAAAAAAAGGTCTTGAGATTGTGACCAAATCTCCTCAACTCCAATATCTTATTAATGTAAATACAAACAAGAAGATAAGGAGTGACATTAA
modifications: expressed or natural sequence

Test system: Corn
Assay: Corn growth after BEMD PhoA4 spores with or without polyphosphate (Example 11)
Assay type: in vivo
Conditions: Additive: Polyphosphate 0.5 mg/pot; corn height at two weeks
In the case of Polyphosphate, the “Growth, Comparison to Water” value is reported as 110.8%.

Test system: corn plants at the V5 stage
Assay: Foliar application to corn under heat and water stress (Example 38)
Assay type: in vivo
Conditions: not given
With `c1ccc2snnc2c1` [Benzothiadiazole (BTH), Benzothiadiazole] the “effect on growth of stressed corn” value was “positive responses”.
In the case of `O=C(O)c1ccccc1O` [Salicylic Acid], the “effect on growth of stressed corn” value is reported as “positive responses”.

Same assay, conditions: foliar spray 1 ml/plant; 32.2° C., watering once per week; compared to water-only control
With `c1ccc2snnc2c1` [Benzothiadiazole (BTH), Benzothiadiazole] the “Change in plant Height over 2 week stress” value was 7.3%.
In the case of `O=C(O)c1ccccc1O` [Salicylic Acid], the “Change in plant Height over 2 week stress” value is reported as 5.8%.

Test system: sigma K driven genes in Bacillus cereus family members
Assay: not given
Conditions: microarray data from Bergman et al., 2008; late sporulation, 300 minutes; cited from earlier work
For B1, the “Relative Expression (Fold increase in mRNA)” value is listed as 34.25 Fold.
In the case of B2, the “Relative Expression (Fold increase in mRNA)” value is given as 72.25 Fold.
In the case of B3, the “Relative Expression (Fold increase in mRNA)” value is given as 77.44 Fold.
In the case of B4, the “Relative Expression (Fold increase in mRNA)” value is given as 64 Fold.
In the case of B5, the “Relative Expression (Fold increase in mRNA)” value is given as 14.44 Fold.
In the case of B6, the “Relative Expression (Fold increase in mRNA)” value is given as 64 Fold.
In the case of B7, the “Relative Expression (Fold increase in mRNA)” value is given as 79.21 Fold.
In the case of B8, the “Relative Expression (Fold increase in mRNA)” value is listed as 73.96 Fold.
For B9, the “Relative Expression (Fold increase in mRNA)” value is listed as 30.25 Fold.
In the case of B10, the “Relative Expression (Fold increase in mRNA)” value is listed as 75.69 Fold.
For B11, the “Relative Expression (Fold increase in mRNA)” value is listed as 70.56 Fold.
In the case of B12, the “Relative Expression (Fold increase in mRNA)” value is given as 32.49 Fold.
